Experiment [1] concerns the target T1, human IL4Rα/Fc (R and D Systems 604-4R) (human, UniProt P24394 26-231, limits assumed, biotin labelled in the assay of Example 5).
T1 construct: bought protein; also called IL-4Rα/Fc (R&D systems Cat. No. 604-4R-050); not shown: Fc part of the bought fusion
T1 sequence (looked up): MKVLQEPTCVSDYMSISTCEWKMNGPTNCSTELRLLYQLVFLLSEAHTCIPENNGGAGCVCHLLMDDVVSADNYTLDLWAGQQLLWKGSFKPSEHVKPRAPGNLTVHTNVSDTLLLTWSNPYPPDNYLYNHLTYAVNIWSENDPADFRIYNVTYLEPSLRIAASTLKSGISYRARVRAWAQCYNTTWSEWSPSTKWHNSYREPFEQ
Briefly: HTRF receptor-ligand assay, purified scFv against biotinylated human IL4. On the technique in general: Time-resolved FRET reads energy transfer from a long-lived donor to a nearby acceptor.

Experiment [2] deals with T2, cynomolgus IL4Rα/Fc HIS6 (HEK expressed) (cynomolgus monkey).
T2 construct: also called Cyno IL4R; cynomolgus IL-4Rα HIS Fc (in house HEK-EBNA derived); not shown: HIS6 tag
T2 sequence (chain, as listed by the source): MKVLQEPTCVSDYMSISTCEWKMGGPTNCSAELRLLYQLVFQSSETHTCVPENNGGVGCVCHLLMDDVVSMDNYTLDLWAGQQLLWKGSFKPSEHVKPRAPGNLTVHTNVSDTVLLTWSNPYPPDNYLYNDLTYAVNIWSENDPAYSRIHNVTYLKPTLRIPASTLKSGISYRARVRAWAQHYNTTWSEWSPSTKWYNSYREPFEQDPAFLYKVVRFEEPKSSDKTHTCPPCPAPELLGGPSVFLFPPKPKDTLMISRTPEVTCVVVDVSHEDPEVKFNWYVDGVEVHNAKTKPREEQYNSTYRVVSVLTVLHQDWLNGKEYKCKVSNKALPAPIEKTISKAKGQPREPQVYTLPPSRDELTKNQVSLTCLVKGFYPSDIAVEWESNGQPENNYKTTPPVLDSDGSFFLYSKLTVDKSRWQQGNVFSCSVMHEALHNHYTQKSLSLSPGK
As to the kind of experiment: HTRF receptor-ligand assay, purified scFv against biotinylated cynomolgus IL4.

B1: Antibody 13 scFv (scFv, V domains shown)
VH: QVQLVQSGAEVKKPGASVKVSCKASGYAFTSYYMHWARQAPGQGLEWMGIINPSGGSTSYAQKFQGRVTMTRDTSTSTVYMELSSLRSEDTAVYYCARGKWWLYDWGKGTLVTVSS
VL: QSVLTQPPSVSAAPGQKVTISCSGGSSNIGNSYVSWYQQLPGTAPKLLIYDNNKRPSGIPDRFSGSKSGTSATLAITGLQTGDEADYYCGTWDTSTTLQPLFGTGTKLTVL
notes: tested as purified scFv
The Ki is a dissociation constant, usually derived from enzyme kinetics or from competition with a known ligand. The low end stands for a stronger hold on the target, the high end for a looser hold on the target. In the case of B1, the Ki in experiment [1] is 0.3 nM; in experiment [2], 22.2 nM.

B2: Antibody 25 scFv (scFv, V domains shown)
VH: QVQLVQSGAEVKKPGASVKVSCKASGYAFTSYYMHWARQAPGQGLEWMGIINPRGGSASYAQKFQGRVSMTRDTSTSTVYMELSSLRSEDTAVYYCARGKYWMYDWGKGTLVTVSS
VL: QSVLTQPPSVSAAPGQKVTISCSGGSSNIGNSYVSWYQQLPGTAPKLLIYDNNKRPSGIPDRFSGSKSGTTATLAITGLQTGDEADYYCGTWVTSTVWEWPFGTGTKLTVL
notes: tested as purified scFv
In the case of B2, the Ki stood at 0.039 nM in experiment [1] and 1.3 nM in experiment [2].

B3: Antibody 16 scFv (scFv, V domains shown)
VH: QVQLVQSGAEVKKPGASVKVSCKASGYAFTSYYMHWARQAPGQGLEWMGIINPSGGSTSYAQKFQGRVTMTRDTSTSTVYMELSSLRSEDTAVYYCARGKWWLYNWGKGTLVTVSS
VL: QSVLTQPPSVSAAPGQKVTISCSGGSSNIGNSYVSWYQQLPGTAPKLLIYDNNKRPSGIPDRFSGSKSGTSATLAITGLQTGDEADYYCGTWDTSTTYHPIFGTGTKLTVL
notes: tested as purified scFv
Regarding B3, the Ki in experiment [1] came out at 0.4 nM; in experiment [2] it was 8.7 nM.

B4: Antibody 22 scFv (scFv, V domains shown)
VH: QVQLVQSGAEVKKPGASVKVSCKASGYAFTSYYMHWARQAPGQGLEWMGIINPSGGSTSYAQKFQGRVTMTRDTSTSTVYMELSSLRSEDTAVYYCARGKYWMYDWGKGTLVTVSS
VL: QPVLTQPPSVSAAPGQKVTISCSGGSSNIGNSYVSWYQQLPGTAPKLLIYDNNKRPSGIPDRFSGSKSGTSATLAITGLQTGDEADYFCGTWDTSTVWEWPFGTGTKLTVL
notes: tested as purified scFv
On to B4, for which the Ki amounted to 0.3 nM in experiment [1] and 2.6 nM in experiment [2].

B5: Antibody 24PGL scFv (scFv, V domains shown)
VH: QVQLVQSGAEVKKPGASVKVSCKASGYAFTSYYMHWVRQAPGQGLEWMGIINPRGGSTSYAQKFQGRVTMTRDTSTSTVYMELSSLRSEDTAVYYCARGKYWMYDWGKGTLVTVSS
VL: QSVLTQPPSVSAAPGQKVTISCSGGSSNIGNSYVSWYQQLPGTAPKLLIYDNNKRPSGIPDRFSGSKSGTSATLGITGLQTGDEADYFCGTWDTSTVWEWPFGTGTKLTVL
notes: tested as purified scFv
On to B5, for which the Ki in experiment [1] came to 0.065 nM; in experiment [2], 0.7 nM.

B6: Antibody 28 scFv (scFv, V domains shown)
VH: QVQLVQSGAEVKKPGASVKVSCKASGYAFTSYYMHWARQAPGQGLEWMGIINPSGGSTSYAQKFQGRVTMTRDTSTSTVYMELSSLRSEDTAVYYCARGKYWMYDWGNGTLVTVSS
VL: LPVLTQPPSVSAAPGQKVTISCSGGSSSIGNSYVSWYQQLPGAAPKLLIYDNNKRPSGIPDRFSGFRSGTSATLAITGLQTGDEADYYCGTWDTSPVWEWPFGTGTKLTVL
notes: tested as purified scFv
With B6, the figures for the Ki in experiment [1] and in experiment [2] were 0.094 nM and 1.8 nM, respectively.

B7: Antibody 35 scFv (scFv, V domains shown)
VH: QVQLVQSGAEVKKPGASVKVSCKASGYAFTSYYMHWARQAPGQGLEWMGIINPSGGSTSYAQKFQGRVTMTRDTSTSTVYMELSSLRSEDTAVYYCARGKYWMYDWGKGTLVTVSS
VL: QSVLTQPPSVSAAPGQKVTISCSGGSSNIGNSYVSWYQQLPGTAPKLLIYDNNKRPSGIPDRFSGSKSGTSATLAITGLQTGDEADYYCGTWDTSPVWEWPFGTGTKLTVL
notes: tested as purified scFv
Regarding B7, the Ki in experiment [1] is 0.071 nM; in experiment [2], 2.6 nM.

B8: Antibody 27 scFv (scFv, V domains shown)
VH: QVQLVQSGAEVRKPGASVKVSCKASGYAFTSYYMHWARQAPGQGLEWMGIINPSGGSTSYAQKFQGRVTMTRDTSTSTVYMELSSLRPEDTAVYYCARGKYWMYDWGKGTQVTVSS
VL: QSVLTQPPLVSAAPGQKVTISCSGGSSNIGNSYVSWYQRLPGTAPKLLIYDNNKRPSGIPDRFSGSKSGTSATLAITGLQTGDEADYYCGTWDTSTVWEWPFGTGTKLTVL
notes: tested as purified scFv
On to B8, for which the Ki in experiment [1] came to 0.063 nM; in experiment [2] it was 2.8 nM.

B9: Antibody 19 scFv (scFv, V domains shown)
VH: QVQLVQSGAEVKKPGASVKVSCKASGYAFTSYYMHWARQAPGQGLEWMGIINPSGGSTSYAQKFQGRVTMTRDTSTSTVYMELSSLRSEDTAVYYCARGKWWWQHWGKGTLVTVSS
VL: QSVLTQPPSVSAAPGQKVTISCSGGSSNIGNSYVSWYQQLPGTAPKLLIYDNNKRPSGIPDRFSGSKSGTSATLAITGLQTGDEADYYCGTWDTSTTYHPIFGTGTKLTVL
notes: tested as purified scFv
On to B9, for which the Ki amounted to 0.8 nM in experiment [1] and 18.5 nM in experiment [2].

B10: Antibody 37 scFv (scFv, V domains shown)
VH: QVQLVQSGAEVKKPGASVKVSCKASGYAFTSYYMHWARQAPGQGLEWMGIINPRGGSTSYAQKFQGRVAMTRDTSTSTVYMELSSLRPEDTAVYYCARGKYWMYDWGKGTLVTVSS
VL: QSVLTQPPSVSAAPGQKVTISCSGGGSSIGNSYVSWYQQLPGTAPKLLIYDNNKRPSGVPDRFSGSKSGTSATLAITGLQTGDEADYYCGTWDTSPVWEWPFGTGTKLTVL
notes: tested as purified scFv
As for B10, the figures for the Ki in experiment [1] and in experiment [2] were 0.04 nM and 0.8 nM, respectively.

B11: Antibody 24 scFv (scFv, V domains shown)
VH: QVQLVQSGAEVKKPGASVKVSCKASGYAFTSYYMHWARQAPGQGLEWMGIINPRGGSTSYAQKFQGRVTMTRDTSTSTVYMELSSLRSEDTAVYYCARGKYWMYDWGKGTLVTVSS
VL: QSVLTQPPSVSAAPGQKVTISCSGGSSNIGNSYVSWYQQLPGTAPKLLIYDNNKRPSGIPDRFSGSKSGTSATLAITGLQTGDEADYFCGTWDTSTVWEWPFGTGTKLTVL
notes: tested as purified scFv
In the case of B11, the results for the inhibition constant (Ki) in experiment [1] and in experiment [2] were 0.049 nM and 0.8 nM, respectively.

B12: Antibody 31 scFv (scFv, V domains shown)
VH: QVQLVQSGAEVKKPGASVKVSCKASGYAFTSYYMHWARQAPGQGLEWMGIINPSGGSTSYAQKFQGRVTMTRDTSTSTVYMELSSLRSEDTAVYYCARGKYWMYDWGKGTLVTVSS
VL: QSVLTQPPSVSAAPGQKVTISCSGGSSSIGNSYVSWYQQLPGTAPKLLIYDNNKRPSGIPDRFSGSKSGTSATLAITGLQTGDEADYYCGTWATSPVWEWPFGTGTKLTVL
notes: tested as purified scFv
Turning to B12, the Ki worked out at 0.044 nM in experiment [1] and 2.2 nM in experiment [2].

B13: Antibody 21 scFv (scFv, V domains shown)
VH: QVQLVQSGAEVKKPGASVKVSCKASGYAFTSYYMHWARQAPGQGLEWMGIINPSGGSASYAQKFQGRVTMTRDTSTSTVYMELSSLRSEDTAVYYCARGKYWMYDWGKGTLVTVSS
VL: QSVLTQPPSVSAAPGQKVTISCSGGSSNIGNSYVSWYQQLPGTAPKLLIYDNNKRPSGIPDRFSGSKSGTSATLAITGLQTGDEAVYFCGTWDTSTVWEWPFGTGTKLTVL
notes: tested as purified scFv
For B13, the Ki in experiment [1] amounted to 0.031 nM; in experiment [2] it was 1 nM.

B14: Antibody 30 scFv (scFv, V domains shown)
VH: QVQLVQSGAEVKKPGASVKVSCKASGYAFTSYYMHWARQAPGQGLEWMGIINPSGGSTSYAQKFQGRVTMTRDTSTSTVYMELSSLRSEDTAVYYCARGKYWMYDWGKGTLVTVSS
VL: QSVLTQPPSVSAAPGQKVTISCSGGSSNIGNSYVSWYQRLPGAAPKLLIYDNNKRPSGIPDRFSGSKSGTSATLAITGLQTGDEADYYCGTWDTSTVWEWPFGTGTKLTVL
notes: tested as purified scFv
As for B14, the Ki in experiment [1] is 0.069 nM; in experiment [2], 3.6 nM.

B15: Antibody 18 scFv (scFv, V domains shown)
VH: QVQLVQSGAEVKKPGASVKVSCKASGYAFTSYYMHWARQAPGQGLEWMGIINPSGGSTSYAQKFQGRVTMTRDTSTSTVYMELSSLRSEDTAVYYCARGKWWWQHWGKGTLVTVSS
VL: QSVLTQPPSVSAAPGQKVTISCSGGSSNIGNSYVSWYQQLPGTAPKLLIYDNNKRPSGIPDRFSGSKSGTSATLAITGLQTGDEADYYCGTWDTSTTPMPVFGTGTKLTVL
notes: tested as purified scFv
On to B15, for which the Ki in experiment [1] was determined as 0.7 nM; in experiment [2], 56.5 nM.

B16: Antibody 26 scFv (scFv, V domains shown)
VH: QVQLVQSGAEVKKPGASVKVSCKASGYAFTSYYMHWARQAPGQGLEWMGIINPSGGSTSYAQKFQGRVTMTRDTSTSTVYMELSSLRSEDTAVYYCARGKYWMYDWGKGTLVTVSS
VL: QSVLTQPPSVSAAPGQKVTISCSGGSSNIGNSYVSWYQQLPGTAPKLLIYDNNKRPSGIPDRFSGSKSGTSATLAITGLQTGDEADYFCGTWDTSTVWEWPFGTGTKLTVL
notes: tested as purified scFv
As to B16, the Ki was 0.1 nM in experiment [1] and 1.2 nM in experiment [2].

B17: Antibody 23 scFv (scFv, V domains shown)
VH: QVQLVQSGAEVRKPGASVKVSCKASGYAFTSYYMHWARQAPGQGLEWMGIINPSGGSTSYAQKFQGRVTMTRDTSTSTVYMELSSLRSEDTAVYYCARGKYWMYDWGKGTLVTVSS
VL: QSVLTQPPSVSAAPGQKVTISCSGGSSNIGNNYVSWYQQLPGTAPKLLIYDNNKRPPGIPDRFSGSKSGTSATLAITGLQTGDEADYYCGTWDTSTVWEWPFGTGTKLTVL
notes: tested as purified scFv
B17: the Ki in experiment [1] was found to be 0.2 nM; in experiment [2], 4.8 nM.

B18: Antibody 15 scFv (scFv, V domains shown)
VH: QVQLVQSGAEVKKPGASVKVSCKASGYAFTSYYMHWARQAPGQGLEWMGIINPSGGSTSYAQKFQGRVTMTRDTSTSTVYMELSSLRSEDTAVYYCARGKWWLYNWGKGTLVTVSS
VL: QSVLTQPPSVSAAPGQKVTISCSGGSSNIGNSYVSWYQQLPGTAPKLLIYDNNKRPSGIPDRFSGSKSGTSATLAITGLQTGDEADYYCGTWDTSTHRHPLFGTGTKLTVL
notes: tested as purified scFv
B18: the figures for the Ki in experiment [1] and in experiment [2] were 1 nM and 32.3 nM, respectively.

B19: Antibody 33 scFv (scFv, V domains shown)
VH: QVQLVQSGAEEKKPGASVKVSCKASGYAFTSYYMHWARQAPGQGLEWMGIINPSGGSTSYAQKFQGRVTMTRDTSTSTVYMELSSLRSEDTAVYYCARGKYWMYDWGKGTLVTVSS
VL: QSALTQPPSVSAAPGQKVTISCSGGSSNIGNSYVSWYQQLPGTAPKLLIYDNNKRPSGIPDRFSGSKSGTSATLAITGLQTGDEADYFCGTWDTSTVWEWPFGTGTKLTVL
notes: tested as purified scFv
Turning to B19, the Ki in experiment [1] came to 0.092 nM; in experiment [2], 1.4 nM.

These data come from patent US20180057596A1 (AstraZeneca / MedImmune, published 2018).
